Data: the nanobody polyreactivity screen of Harvey et al. (2022)

Test: yeast display, Sf9 membrane polyspecificity reagent, FACS + sequencing; frameworks hold sequencing errors
In short: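 After 36–48 hours of galactose induction, yeast (Saccharomyces cerevisiae BJ5465) displaying a synthetic nanobody library were stained at 4 °C for 1 hour with 10% biotinylated, detergent-solubilized Sf9 membrane reagent. Streptavidin microbeads enriched the stained cells before FACS sorting into low and high (top ~1%) gates on anti-HA and streptavidin fluorescence. Each clone's polyreactivity label reflects its gate of origin.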

| Sequence | polyreactivity (PSR sort gate) |
| --- | --- |
| QVQLVESGGGLVQAGGSLRLSCAASGRIFPPNAMGWYRQAPGKERELVAAITRGGSTNYADSVKGRFTISRDNAKNTVYLQMNSLKPEDTAVYYCAARGLRRQAPFYYWGQGTQVTVSS | high polyreactivity |
| QVQLVESGGGLVQAGGSLRLSCAASGRIFPPNAMGWYRQAPGKERELVAGITPSGDTTYYADSVKGRFTISRDNAKNTVYIQMNSLKPEDTAVYYCAKDEVYADDRSALFDYWGQGTQVTVSS | low polyreactivity |
| QVQLVESGGGLVQAGGSLRLSCAASGRIFPPNAMGWYRQAPGKERELVAGITSSGDTTYYADSVKGRFTISRDNAKNTDYLQMNSLKPEDTAVYYCAKDEVYADDRSALFDYWGQGTQVTVSS | low polyreactivity |
| QVQLVESGGGLVQAGGSLRLSCAASGRIFPPYGMGWYRQAPGKERELVAGITSDGSTNYADSVKGRFTISRDNAKNTVYLQMNSLKPEDTAVYFCAADQGSWYYYPVYYYGGDYWGQGTQVTVSS | low polyreactivity |
| QVQLVESGGGLVQAGGSLRLSCAASGRIFPRNVMGWYRQAPGKERELVAAISSRGTRTYYADSVKGRFTISRDNAKNTVYLQMYSLKPEDTAVYYCAADGPYEGYDYWGQGTQVTVSS | high polyreactivity |
| QVQLVESGGGLVQAGGSLRLSCAASGRIFPRYAMGWYTQAPGKERELVAAITTGGSTYADSVKGRFTISRDNAKNTVYLQMNSLKPEDTAVYYCGVDGYVAFSPDRNNYWGQGTQVTVSA | low polyreactivity |
| QVQLVESGGGLVQAGGSLRLSCAASGRIFPSNAMGWYRQAPGKERELVAAISVSGGSTYYADSVKGRFTISRDNAKNTVYLQMNSLKPEDTAVYYCAVRAWDPYTGKSDYWGQGTQVTVSS | low polyreactivity |
| QVQLVESGGGLVQAGGSLRLSCAASGRIFPSYAMGSSRQAPGKEREFVAAITWSGTDTYYADSVQGRFTISRDNAKNTVYLQMTSLKPEDTAVYYCAAEEYVEVDTTAYDYWGQGTQVTVSS | low polyreactivity |
| QVQLVESGGGLVQAGGSLRLSCAASGRIFPSYAMGWYRQAPGKERELVAAISSSSAGTYYADSVKGRFTISRDNAKNTVYLQMNSLKPEDTAVYYCAAASARYRQYKSYYYWGQGTQVTVSS | high polyreactivity |
| QVQLVESGGGLVQAGGSLRLSCAASGRIFPSYAMGWYRQAPGKERELVATISSGGRTYYADSVKGRFTISRDNAKNTVYLQMNSLKPEDTEVYYCNADRTQDRNPYTYATFDYWGQGTQVTVSS | low polyreactivity |
| QVQLVESGGGLVQAGGSLRLSCAASGRIFPTNAMGWYRQAPGKERELVAAIPVSGGSTYYADSVKGRFTISRDNAKKTVYLQMNSLKPEDTAVYYCAVDDRASVGSRLDHWGQGTQVTVSS | low polyreactivity |
| QVQLVESGGGLVQAGGSLRLSCAASGRIFPVNAMGRYRQAPGKERELVATISSGDITNYADSVKGRFTISRDNAKNTVYLQMNSLKPEDTAVYYCNADTSYSEWGSWYYEYDYWGQGTQVTVSS | low polyreactivity |
| QVQLVESGGGLVQAGGSLRLSCAASGRIFPVYAMGWYRQATGKERELVATISYSGSSTYYADSVKGRFTISRDNAKNTVYLQMNSLKPEDTAVYYCNADAFGPPGVQYYYWGQGTQVTVSS | low polyreactivity |
| QVQLVESGGGLVQAGGSLRLSCAASGRIFPVYVMGWYRQAPGKEREFVASISWRGGSTFYADSVKGRFTISRDNAKNTVYLQMNSLKPEDTAVYYCAADYWSSDSSRGTMYYWGQGTQVTVSS | low polyreactivity |
| QVQLVESGGGLVQAGGSLRLSCAASGRIFPYNAMGWYRPAPGKEREFVAAITWSGGSTYYADSVKGRFTISRDNAKNTVYLQMNCLKPEDTAVYYCAIRYPWQYNYWGQGTQVTVSS | high polyreactivity |
| QVQLVESGGGLVQAGGSLRLSCAASGRIFPYNAMGWYRQAPGKERELVAAINWSGGSTYYADSVKGRFTISRDNAKNTVYLQMNSLKPEDTAVYYCAAVYRYNSDPDYDYWGQGTQVTVSS | high polyreactivity |
| QVQLVESGGGLVQAGGSLRLSCAASGRIFPYYAMGWYRQAPGKERELVAAINWRGTRTYADSVKGRFTLSRDNAKNTVYLQMNSLKPEDTEVYYCAARTLYFSKYDYWGQGTQVTVSS | high polyreactivity |
| QVQLVESGGGLVQAGGSLRLSCAASGRIFPYYAMGWYRQAPGKERELVAAITSGGTTYYADSVKGRFTISRDNAKNTVYLQMNSLKPEDTAVYYCNAVGTPVKISTDRGYWGQGTQVTVSS | low polyreactivity |
| QVQLVESGGGLVQAGGSLRLSCAASGRIFPYYAMGWYRQAPGKERELVATITSGGSTYYADSVKGRFTISRDNAKNTVYLQMNSLKPEDTAVYYCAARYPSIYFYRYDYWGQGNQVTVSS | high polyreactivity |
| QVQLVESGGGLVQAGGSLRLSCAASGRIFPYYAMGWYRQAPGKERELVAVISTRGGSTYYADSVKGRFTISRDNAKNTVYLQMNSLKPEDTAVYYCAAKSVYRMGYWGQGTQVTVSS | high polyreactivity |
| QVQLVESGGGLVQAGGSLRLSCAASGRIFPYYVMGWYRQAPGKERELVAAISRSGSSTYYADSVKGRFTISRDNAKNTVYLQMNSLKPEDTAVYYCAADYNWSPYYTRGDYWGQGTQVTVSS | high polyreactivity |
| QVQLVESGGGLVQAGGSLRLSCAASGRIFQINAMGWYRQAPGKERELVAAISWSDDTTYYADSVKGRFTISRDNAKNTVYLQMISLKPEDTAVYYCAAERGQDYSYSGDDDYWGQGTQVTVSS | high polyreactivity |
| QVQLVESGGGLVQAGGSLRLSCAASGRIFQIYAMGWYRQAHGKERELVAAISSGGTTYYADSVKGRFTISRDNAKYTVYLLMNSLKPEDTAVYYCADASGYYRYDYWGQGTQVTVSS | high polyreactivity |
| QVQLVESGGGLVQAGGSLRLSCAASGRIFQIYAMGWYRQAPGKERELVAAISGSTSYADSVKGRFTISRDNAKNTVYLQMNCLKPEDSAVYDCSALSLLPNGEYWGQGSQVTVSS | low polyreactivity |
| QVQLVESGGGLVQAGGSLRLSCAASGRIFQIYAMGWYRQAPGKERELVAAISNRGGSTYYADSVKGRFTISRDNAKNTVYLQMNSLKPEDTAVYYCNATTGYGGYNYWGQGTQVTVSS | low polyreactivity |
| QVQLVESGGGLVQAGGSLRLSCAASGRIFQIYAMGWYRQAPGKERELVATISSGTRTYYADSVKGRFTISRDNAKNTVYLQMNSLKPEDTAVYYCNTGLVYGYDYWGQGTQVTVSS | high polyreactivity |
| QVQLVESGGGLVQAGGSLRLSCAASGRIFQKNAMGWNIQAPGKERELVAVISWSDGSTNYADSVKGRFTISRDNAKNTVYLQMNSLKPEDTAVYYCNAAPLEGTLYDSWGQGTQVTVSS | low polyreactivity |
| QVQLVESGGGLVQAGGSLRLSCAASGRIFQKNAMGWYRQPPGKERELVAAISGSGSTTNYADSVKGRFTISRDNAKNTVDLQMNSLKPEDTAVFYCGTGKRGVSGRGFRYDYWGQGTQVTVSS | high polyreactivity |
| QVQLVESGGGLVQAGGSLRLSCAASGRIFQKYAMGWSRQAPGKERELVAAISYGGGRTYYADSVKGRFTISRDNAKNTVYLQMNSLKPEDTAVYYCATDYKYAAPTVIESDYWGQGTQVTVSS | high polyreactivity |
| QVQLVESGGGLVQAGGSLRLSCAASGRIFQPYALGWYRQAPGKEREWVAAITRRAGSTYYADSVQGRFTISRDNAKNTVYLQMNSLKPDDTAVYYCAARGLYWAYEMEYWGQGTQVTVSS | low polyreactivity |
